This assay has as its target BDBV GP ectodomain (Bundibugyo virus).

The record followed here is patent US20200040065A1 (INTEGRATED BIOTHERAPEUTICS, published 2020).

A word on the EC50: it is the concentration that produces a half-maximal response. Low values mean higher potency in that assay, high ones lower potency in that assay.

B1: monoclonal antibody CA45 (antibody, V domains shown)
VH: QVQLQEWGEGLVKPSETLSLTCAVYGGSISGYYHWNWIRLPPGKGLEWIGNIDNSASTNYNPSLKTRVTISKDTSKNQISLKVRSLTAADTAVYYCARDPGFTIFGVVITSWSGLDSWGQGAVVTVSS
VL: DIQMTQSPSSLSASVGDTVTITCRASQSISNNLAWYQQRPRRAPQLLIYAASNLASGVPSRFSGSGSGTDFTLTISSLQAEDFAAYYCQQHNTLPLTFGGGTKVEI
B1: the EC50 is 0.65 to 1.41 nM.
